Key:
[1] = molecular target: ectodomain of murine CD98hc (mouse) (UniProt P10852); assay: ELISA, expression medium of VNAR-hFc on coated protein
[2] = molecular target: ectodomain of murine CD98hc (mouse) (UniProt P10852); assay: ELISA, purified VNAR-Fc titrated on coated CD98hc
[3] = molecular target: Human serum albumin (human) (UniProt P02768); assay: ELISA, expression medium of VNAR-hFc on coated protein (negative control)
[4] = molecular target: ectodomain of human CD98hc (human) (UniProt P08195); assay: ELISA, expression medium of VNAR-hFc on coated protein
Sequence of ectodomain of human CD98hc (human) (P08195 206-630): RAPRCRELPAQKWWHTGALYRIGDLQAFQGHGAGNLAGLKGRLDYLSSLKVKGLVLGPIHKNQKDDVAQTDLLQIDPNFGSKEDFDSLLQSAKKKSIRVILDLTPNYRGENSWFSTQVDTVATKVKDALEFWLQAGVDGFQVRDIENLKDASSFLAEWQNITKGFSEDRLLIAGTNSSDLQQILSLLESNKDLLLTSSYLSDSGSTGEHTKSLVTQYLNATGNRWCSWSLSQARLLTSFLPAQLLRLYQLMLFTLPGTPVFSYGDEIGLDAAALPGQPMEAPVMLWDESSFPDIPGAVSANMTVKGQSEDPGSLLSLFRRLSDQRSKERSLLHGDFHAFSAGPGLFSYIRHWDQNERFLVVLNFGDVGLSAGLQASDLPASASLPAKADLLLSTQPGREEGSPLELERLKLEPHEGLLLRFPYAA

Sequence of Human serum albumin (human) (P02768 25-609 limits assumed): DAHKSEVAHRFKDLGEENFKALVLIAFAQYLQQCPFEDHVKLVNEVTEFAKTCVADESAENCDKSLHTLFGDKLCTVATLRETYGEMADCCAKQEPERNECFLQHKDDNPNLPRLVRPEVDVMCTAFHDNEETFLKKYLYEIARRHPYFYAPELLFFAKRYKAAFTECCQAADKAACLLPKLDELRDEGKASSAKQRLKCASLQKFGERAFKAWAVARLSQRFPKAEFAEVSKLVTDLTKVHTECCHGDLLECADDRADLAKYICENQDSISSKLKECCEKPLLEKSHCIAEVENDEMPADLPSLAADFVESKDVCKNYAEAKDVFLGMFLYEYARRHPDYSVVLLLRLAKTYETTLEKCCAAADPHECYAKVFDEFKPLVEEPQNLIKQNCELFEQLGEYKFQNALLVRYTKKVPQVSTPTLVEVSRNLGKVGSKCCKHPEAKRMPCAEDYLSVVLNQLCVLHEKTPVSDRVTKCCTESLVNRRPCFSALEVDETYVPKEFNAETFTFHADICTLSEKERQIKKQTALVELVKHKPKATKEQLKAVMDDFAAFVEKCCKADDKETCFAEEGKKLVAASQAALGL
Sequence of ectodomain of murine CD98hc (mouse) (P10852 100-526): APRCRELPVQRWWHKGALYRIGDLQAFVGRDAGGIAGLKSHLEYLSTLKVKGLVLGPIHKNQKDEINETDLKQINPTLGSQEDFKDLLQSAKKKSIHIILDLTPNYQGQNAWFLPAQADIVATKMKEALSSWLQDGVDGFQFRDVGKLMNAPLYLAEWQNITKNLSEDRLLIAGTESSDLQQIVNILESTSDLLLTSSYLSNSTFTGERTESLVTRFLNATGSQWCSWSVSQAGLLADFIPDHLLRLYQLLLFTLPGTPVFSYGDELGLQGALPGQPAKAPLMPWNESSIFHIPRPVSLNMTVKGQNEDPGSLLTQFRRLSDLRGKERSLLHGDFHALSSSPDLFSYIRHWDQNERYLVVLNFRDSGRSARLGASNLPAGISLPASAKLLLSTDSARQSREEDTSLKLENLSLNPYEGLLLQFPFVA

B1: VNAR clone E12 fused N-terminally to human IgG1 Fc (VNAR-hFc) (Fc fusion, not shown: a dimerising Fc or GST)
chain: ARVDQTPQTITKEEGESLTINCVLRTQDPALASTSWYRKKSGSTREETISKGGRYVETVNSGSKSFSLRINDLTVEDSGTYRCNVYFLLAPTKTKLQGIDVYGDGTAVTVNA
Binding [relative units] (relative units) [1]: 0.078 | EC50 [2]: 819 nM | Binding [relative units] (relative units) [3]: 0.056

B2: VNAR clone D1 fused N-terminally to human IgG1 Fc (VNAR-hFc) (Fc fusion, not shown: a dimerising Fc or GST)
chain: ARVDQTPQTITKEEGESLTINCVLRHNYSALASTSWYRKKSGSTREETISKGGRYVETVNSGSKSFSLRINDLTVEDSGTYRCNVYGISFIEEKIRYDFDVYGDGTAVTVNA
Binding [relative units] (relative units) [1]: 0.417 | EC50 [2]: 190 nM | Binding [relative units] (relative units) [3]: 0.074

B3: VNAR clone G10 fused N-terminally to human IgG1 Fc (VNAR-hFc) (Fc fusion, not shown: a dimerising Fc or GST)
chain: ARVDQTPQTITKETGESLTINCVLRDSNCALSSTYWYRKKSGSTNEENISKGGRYVETVNSGSKSFSLKINDLTVEDSGTYRCKVVFKLFSGRACAGEKDVYGGGTVVTVNA
Binding [relative units] (relative units) [4]: 0.043 | Binding [relative units] (relative units) [1]: 0.041 | Binding [relative units] (relative units) [3]: 0.051

B4: VNAR clone G6 fused N-terminally to human IgG1 Fc (VNAR-hFc) (Fc fusion, not shown: a dimerising Fc or GST)
chain: ARVDQTPQTITKEEGESLTINCVLRVETRALASTSWYRKKSGSTREETISKGGRYVETVNSGSKSFSLRINDLTVEDSGTYRCNVYIRHYSEFTQAPFRDVYGDGTAVTVNA
Binding [relative units] (relative units) [4]: 0.042 | Binding [relative units] (relative units) [1]: 0.041 | Binding [relative units] (relative units) [3]: 0.052

B5: VNAR clone F11 fused N-terminally to human IgG1 Fc (VNAR-hFc) (Fc fusion, not shown: a dimerising Fc or GST)
chain: ARVDQTPQTITKEEGESLTINCVLRGEFYALASTSWYRKKSGSTREETISKGGRYVETVNSGSKSFSLRINDLTVEDSGTYRCNVYGYRIFSPEVKGPNDVYGDGTAVTVNA
Binding [relative units] (relative units) [4]: 3.03 | Binding [relative units] (relative units) [1]: 0.096 | Binding [relative units] (relative units) [3]: 0.072

B6: VNAR clone H7A fused N-terminally to human IgG1 Fc (VNAR-hFc) (Fc fusion, not shown: a dimerising Fc or GST)
chain: PGVDQTEQTIKKEEGESVTIKCVMRVKYPALASTSRYRKKSGSREETISKGGRYVETVNYSSKSISVRINDMTVEDSGRYRCNVYEEYAVDCDALVYQDVYGDGTAVTVNA
Binding [relative units] (relative units) [4]: 0.043 | Binding [relative units] (relative units) [1]: 0.043 | Binding [relative units] (relative units) [3]: 0.054

B7: VNAR clone H8 fused N-terminally to human IgG1 Fc (VNAR-hFc) (Fc fusion, not shown: a dimerising Fc or GST)
chain: ARVDQTPQTITKETGESLTINCVLRDSNCALPSTYWYRKKSGSTNEESISKGGRYVETVNSGSKSFSLRINDLVVEDSGTYRCKVGNYCIRLCYDMKFAVDVYGGGTAVTVNA
Binding [relative units] (relative units) [4]: 0.048 | Binding [relative units] (relative units) [1]: 0.049 | Binding [relative units] (relative units) [3]: 0.059

B8: VNAR clone G12 fused N-terminally to human IgG1 Fc (VNAR-hFc) (Fc fusion, not shown: a dimerising Fc or GST)
chain: ARVDQTPQTITKETGESLTINCVLRDSNCALSSTYWYRKKSGSTNEALISKGGRYVETVNSGSKSFSLRINDLTVEDSGTYRCNVVQDLRDDCFFRDVYGGGTAVTVNA
Binding [relative units] (relative units) [4]: 0.044 | Binding [relative units] (relative units) [1]: 0.044 | Binding [relative units] (relative units) [3]: 0.054

B9: VNAR clone C6 fused N-terminally to human IgG1 Fc (VNAR-hFc) (Fc fusion, not shown: a dimerising Fc or GST)
chain: ARVDQTPQTITKETGESLTINCVLRDSNCALSSTYWYRKKSGSTNEALISKGGRYVETVNSGSKSFSLRINDLTVEDSGTYRCNVVYDLRDDCFFRDVYGGGTAVTVNA
Binding [relative units] (relative units) [4]: 0.041 | Binding [relative units] (relative units) [1]: 0.042 | Binding [relative units] (relative units) [3]: 0.052

B10: VNAR clone A8 fused N-terminally to human IgG1 Fc (VNAR-hFc) (Fc fusion, not shown: a dimerising Fc or GST)
chain: ARVDQTPQTITKEEGESLTINCVLRRNFQLASTSWYRKKSGSTREETISKGGRYVETVNSGSKSFSLRINDLTVEDSGTYRCNVYGFVEFAKNIVEFIDVYGDGTAVTVNA
Binding [relative units] (relative units) [4]: 2.97 | Binding [relative units] (relative units) [1]: 0.135 | Binding [relative units] (relative units) [3]: 0.065

B11: VNAR clone H6 fused N-terminally to human IgG1 Fc (VNAR-hFc) (Fc fusion, not shown: a dimerising Fc or GST)
chain: ARVDQTPQTITKEEGESLTINCVLRTHSNALASTSWYRKKSGSTREETISKGGRYVETVNSGSKSFSLRINDLTVEDSGTYRCNVYAFLEIQPNIYHEFDVYGDGTAVTVNA
Binding [relative units] (relative units) [1]: 0.186 | EC50 [2]: 86 nM | Binding [relative units] (relative units) [3]: 0.06

B12: VNAR clone G3 fused N-terminally to human IgG1 Fc (VNAR-hFc) (Fc fusion, not shown: a dimerising Fc or GST)
chain: ARVDQTPQTITKETGESLTINCVLRDNNCALSTTYWYRKKSGSTNEENISKGGRYVETVNSGSKSFSLRINDLTVEDSGTYRCKVHFFPSFCNSTSIRSVDVYGGGTVVTVNA
Binding [relative units] (relative units) [1]: 0.041 | Binding [relative units] (relative units) [3]: 0.053

B13: VNAR clone B12 fused N-terminally to human IgG1 Fc (VNAR-hFc) (Fc fusion, not shown: a dimerising Fc or GST)
chain: ARVDQTPRSVTKETGESLTINCVLRDASYALGSTCWYRKKSGSTNEESISKGGRYVETVNSGSKSFSLRINDLTVEDGGTYRCGVARGWRTLNYLCDVRTGEWSCVWRAAACGDGTAVTVNA
Binding [relative units] (relative units) [4]: 0.076 | Binding [relative units] (relative units) [1]: 0.084 | Binding [relative units] (relative units) [3]: 0.081

B14: VNAR clone H7 fused N-terminally to human IgG1 Fc (VNAR-hFc) (Fc fusion, not shown: a dimerising Fc or GST)
chain: ARVDQTPQTITKEEGESLTINCVLRYNNPALASTSWYRKKSGSTREETISKGGRYVETVNSGSKSFSLRINDLTVEDSGTYRCNVYFFPSFLVDKLQSHDVYGDGTAVTVNA
Binding [relative units] (relative units) [1]: 0.108 | EC50 [2]: 504 nM | Binding [relative units] (relative units) [3]: 0.072

B15: VNAR clone F1 fused N-terminally to human IgG1 Fc (VNAR-hFc) (Fc fusion, not shown: a dimerising Fc or GST)
chain: ARVDQTPQTITKEEGESLTINCVLRVHGRALASTSWYRKKSGSTREETISKGGRYVETVNSGSKSFSLRINDLTVEDSGTYRCNVYGLSSGDIEGVKKIDVYGDGTAVTVNA
Binding [relative units] (relative units) [1]: 0.115 | EC50 [2]: 3860 nM | Binding [relative units] (relative units) [3]: 0.073

B16: VNAR clone F12 fused N-terminally to human IgG1 Fc (VNAR-hFc) (Fc fusion, not shown: a dimerising Fc or GST)
chain: ARVDQTPQTITKEEGESLTINCVLRVHGRALASTSWYRKKSGSTREETISKGGRYVETVNSGSKSFSLRINDLTVEDSGTYRCNVYGLSFGDIEGVKKIDVYGDGTAVTVNA
Binding [relative units] (relative units) [1]: 0.563 | EC50 [2]: 72 nM | Binding [relative units] (relative units) [3]: 0.112

B17: VNAR clone H12 fused N-terminally to human IgG1 Fc (VNAR-hFc) (Fc fusion, not shown: a dimerising Fc or GST)
chain: ARVDQTPQTITKEEGESLTINCVLRVHGCALASTSWYRKKSGSTREETISKGGRYVETVNSGSKSFSLRINDLTVEDSGTYRCNVYGLSFVDIEGVKKIDVYGDGTAVTVNA
Binding [relative units] (relative units) [4]: 0.046 | Binding [relative units] (relative units) [1]: 0.045 | Binding [relative units] (relative units) [3]: 0.055

From patent US20250263502A1
